Patent US20090203610A1, “METHODS OF TREATING OBESITY OR DIABETES USING NT-4/5” (RINAT NEUROSCIENCE CORPORATION, priority 2004, published 2009)
Where a chain is given by its changes, count along the chain named. Names may count otherwise.

B1: Pegylated mutant NT-4/5 (Q105C): NT-4/5 with residue 105 changed to cysteine, pegylated with mPEG-maleimide (10,000 Da) (conjugate)
chain: GVSETAPASRRGELAVCDAVSGWVTDRRTAVDLRGREVEVLGEVPAAGGSPLRQYFFETRCKADNAEEGGPGAGGGGCRGVDRRHWVSECKAKQSYVRALTADACGRVGWRWIRIDTACVCTLLSRTGRA
B2: 2PEG-NT4-G1S: NT4-G1S dimer with one 20 kDa PEG molecule conjugated to each NT-4/5 monomer (conjugate)
chain: B1 chain with G1S, C105Q
B3: 1PEG-NT4-G1S: NT4-G1S dimer with one 20 kDa PEG molecule conjugated to only one monomer (conjugate)
chain 1: B1 chain with G1S, C105Q
chain 2: B1 chain with G1S, C105Q

Key:
[1] = biological target: T1, human TrkB (Homo sapiens, UniProt Q16620); test: Receptor tyrosine phosphorylation (KIRA) in TrkB expressing cell line; type: cell-based
T1 construct: expressed in transfected cells
T1 sequence (Q16620 32-822): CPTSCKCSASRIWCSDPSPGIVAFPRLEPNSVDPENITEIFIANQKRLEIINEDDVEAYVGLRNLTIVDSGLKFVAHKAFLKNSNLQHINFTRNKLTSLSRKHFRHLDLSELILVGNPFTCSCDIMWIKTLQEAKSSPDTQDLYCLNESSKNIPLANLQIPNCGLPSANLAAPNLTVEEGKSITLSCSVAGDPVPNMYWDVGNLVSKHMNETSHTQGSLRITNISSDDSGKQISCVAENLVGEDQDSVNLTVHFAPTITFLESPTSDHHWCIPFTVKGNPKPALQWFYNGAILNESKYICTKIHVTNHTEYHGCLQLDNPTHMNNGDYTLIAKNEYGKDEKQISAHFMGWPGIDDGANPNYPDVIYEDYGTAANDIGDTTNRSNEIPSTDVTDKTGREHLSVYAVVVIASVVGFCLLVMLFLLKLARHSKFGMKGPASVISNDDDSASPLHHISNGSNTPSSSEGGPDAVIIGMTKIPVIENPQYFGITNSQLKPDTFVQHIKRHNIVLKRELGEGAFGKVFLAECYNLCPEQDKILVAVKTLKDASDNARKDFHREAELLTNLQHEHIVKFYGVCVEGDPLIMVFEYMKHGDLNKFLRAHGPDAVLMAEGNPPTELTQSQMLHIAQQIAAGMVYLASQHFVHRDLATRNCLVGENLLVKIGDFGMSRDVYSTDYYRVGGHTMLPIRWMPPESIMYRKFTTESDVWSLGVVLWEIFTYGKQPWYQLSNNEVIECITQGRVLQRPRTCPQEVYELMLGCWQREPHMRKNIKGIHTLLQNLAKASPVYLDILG
Source text: Method of making pegylated NT-4/5 (S50C): The native form of NT-4/5 used in this study was produced according to the method described in U.S. Pat. No. 6,184,360. A site-directed pegylated NT-4/5 was also produced. The structure of NT-4/5 in complex with domain 5 of TrkB was examined to find amino acid side chains that would be surface available and unlikely to interfere with natural disulfide bonds and also unlikely to interfere in either the interactions between the monomer subunits of NT-4/5 or the TrkB domain 5 to create a PEG attaching site. […] […] Mutant proteins were expressed in E. coli, solubilized, extracted, purified and refolded as the native NT-4/5. To pegylate the refolded NT4-S50C, NT4-Q105C, and NT-4-E67C, first a mild reduction with 0.1 mM DTT (dithiothreitol) was performed. Excess DTT was removed by dialysis against 50 mM sodium acetate at pH 6, then a 5 molar excess of mPEG-maleimide (M. W. of 10,000 Da, SunBio, Inc., South Korea) was incubated with the protein at 37° C. for several days with gentle agitation. Pegylated protein, non-pegylated protein and unreacted PEG were separated via ion exchange or size exclusion chromatography.
(§1) Assays of TrkB specific activation by pegylated NT-4/5: Stable cell lines expressing human TrkA, TrkB or TrkC were used to determine the functional activity, i.e. receptor phosphorylation, of NT-4/5 and pegylated NT-4/5 as previously described (Sadick et al. Experimental Cell Research 234: 354-361, 1997).
as §1, with “and different forms of” for “and”

[2] = system: NONcNZO-10 polygenic obese mice; test: Pegylated NT-4/5 cysteine mutant on body weight, food intake, glucose, triglyceride in NONcNZO-10 mice (Example 6); type: in vivo; conditions: 2 mg/kg/week injection
[3] = biological target: T2, human TrkA (Homo sapiens, UniProt P04629); test: Receptor tyrosine phosphorylation in trkA expressing cell line; type: cell-based
T2 construct: expressed in transfected cells
T2 sequence (P04629 33-796): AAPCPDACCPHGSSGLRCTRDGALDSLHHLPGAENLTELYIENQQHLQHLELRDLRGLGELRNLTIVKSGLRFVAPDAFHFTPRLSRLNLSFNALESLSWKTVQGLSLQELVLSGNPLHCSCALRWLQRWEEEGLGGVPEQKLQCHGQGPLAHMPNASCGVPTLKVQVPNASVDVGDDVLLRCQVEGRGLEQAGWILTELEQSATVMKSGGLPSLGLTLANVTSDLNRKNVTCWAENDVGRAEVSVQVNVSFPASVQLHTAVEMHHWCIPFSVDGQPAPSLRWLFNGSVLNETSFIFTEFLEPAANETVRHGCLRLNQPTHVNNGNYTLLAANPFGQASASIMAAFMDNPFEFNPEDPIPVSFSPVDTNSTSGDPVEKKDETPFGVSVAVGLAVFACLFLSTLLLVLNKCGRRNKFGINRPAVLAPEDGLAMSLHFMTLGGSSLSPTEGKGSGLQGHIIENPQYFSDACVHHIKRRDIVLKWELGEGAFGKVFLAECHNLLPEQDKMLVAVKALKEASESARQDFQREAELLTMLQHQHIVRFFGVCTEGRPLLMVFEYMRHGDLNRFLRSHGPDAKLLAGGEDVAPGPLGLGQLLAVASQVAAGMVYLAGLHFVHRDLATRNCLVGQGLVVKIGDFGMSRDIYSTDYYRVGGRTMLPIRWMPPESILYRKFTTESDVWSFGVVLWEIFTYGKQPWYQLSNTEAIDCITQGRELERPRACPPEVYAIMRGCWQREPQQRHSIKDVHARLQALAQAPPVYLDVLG
Source text: as §1
as §1, with “and different forms of” for “and”

[4] = biological target: T3, human TrkC (Homo sapiens, UniProt Q16288); test: Receptor tyrosine phosphorylation in trkC expressing cell line; type: cell-based
T3 construct: expressed in transfected cells
T3 sequence (Q16288 32-839): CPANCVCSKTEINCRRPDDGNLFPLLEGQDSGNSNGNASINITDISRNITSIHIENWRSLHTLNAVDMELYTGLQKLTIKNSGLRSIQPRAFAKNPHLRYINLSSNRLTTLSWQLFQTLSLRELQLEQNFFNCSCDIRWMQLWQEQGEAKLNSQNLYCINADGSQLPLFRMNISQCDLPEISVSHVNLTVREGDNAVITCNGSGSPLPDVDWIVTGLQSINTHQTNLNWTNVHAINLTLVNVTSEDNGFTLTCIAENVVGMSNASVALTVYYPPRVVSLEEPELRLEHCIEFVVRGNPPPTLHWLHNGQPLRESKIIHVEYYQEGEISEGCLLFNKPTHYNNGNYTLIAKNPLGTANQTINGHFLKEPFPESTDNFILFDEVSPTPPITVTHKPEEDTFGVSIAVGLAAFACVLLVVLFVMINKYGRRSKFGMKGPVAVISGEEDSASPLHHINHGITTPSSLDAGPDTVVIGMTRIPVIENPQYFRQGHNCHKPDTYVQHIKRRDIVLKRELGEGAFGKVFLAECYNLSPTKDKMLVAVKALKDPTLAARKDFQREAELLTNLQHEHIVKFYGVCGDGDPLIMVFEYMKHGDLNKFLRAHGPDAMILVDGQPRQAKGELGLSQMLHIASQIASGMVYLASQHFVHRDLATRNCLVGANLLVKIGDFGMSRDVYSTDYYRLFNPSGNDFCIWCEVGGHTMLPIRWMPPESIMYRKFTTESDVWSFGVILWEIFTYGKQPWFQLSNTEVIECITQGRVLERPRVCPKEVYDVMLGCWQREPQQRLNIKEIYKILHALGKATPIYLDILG
Source text: as §1
as §1, with “and different forms of” for “and”

[5] = Serum half life after single subcutaneous dose in db/db mice (Example 7); type: in vivo
Source text: In addition, pegylated NT-4/5 has extended half life in vivo.

[6] = system: db/db mice; test: Body weight after single injection of NT-4/5 or pegylated NT-4/5 in db/db mice (Example 7, Table 21); type: in vivo; conditions: for Body weight expressed in percentage of baseline value: single 5 mg/kg dose on day 1; for body weight growth: single subcutaneous injection, 5 mg/kg, significantly
Protocol: (§2) Test animals: 30 female db/db mice at 7 weeks of age weighing in the range of 27-34 g were used in this study.
(§3) Administration of NT-4/5 and pegylated NT-4/5: Wild type NT-4/5 was obtained from Genentech Inc. The mice were divided into 5 groups of equivalent body weight distribution (6 mice per group). Each group received on the first day (day 1) of the study one and the only dose of either vehicle, 5 mg/kg of NT-4/5 produced as described above, 5 mg/kg of 2PEG-NT4-G1S, or 5 mg/kg of 1PEG-NT4-G1S. 2PEG-NT4-G1S represents one PEG molecule was conjugated to each NT-4/5 monomer in a NT-4/5 dimer, and 1PEG-NT4-G1S represents one PEG molecule was conjugated to only one monomer of the NT-4/5 dimer. 2PEG-NT4-G1S and 1PEG-NT4-G1S were separated by ion exchange. Four days before starting the treatment (day −4), blood samples were collected from the mice as described previously for the determination of baseline levels of serum glucose. On day 4 after the treatment started, blood samples were collected again to determine serum glucose level. Body weight and food intake were monitored 5 days a week through out the entire study.

[7] = system: db/db mice; test: Daily food intake after single injection of NT-4/5 or pegylated NT-4/5 in db/db mice (Example 7, Table 22); type: in vivo; conditions: for Daily food intake: single s.c. injection 5 mg/kg, db/db mice, mean; for food intake: single subcutaneous injection, 5 mg/kg, significantly
Protocol: as §2, §3

[8] = system: db/db mice; test: Non-fasting serum glucose after single injection in db/db mice (Example 7); type: in vivo; conditions: after 4 days; single subcutaneous injection, 5 mg/kg
Protocol: as §2, §3

Row | Molecule | receptor tyrosine phosphorylation of TrkB-expressing cell line [1] | in vivo activity (body weight, food intake, glucose or triglyceride) [2] | receptor tyrosine phosphorylation of trkA-expressing cell line [3] | receptor tyrosine phosphorylation of trkC-expressing cell line [4] | absolute protein levels relative to native NT-4/5 ([5]; at any given time point) | serum half life ([5]; single subcutaneous dose of 4 mg/kg in db/db mice, estimated) [h] | Body weight expressed in percentage of baseline value ([6]; Day 1) | Body weight expressed in percentage of baseline value ([6]; Day 2) | Body weight expressed in percentage of baseline value ([6]; Day 3) | Body weight expressed in percentage of baseline value ([6]; Day 4) | body weight growth [6] | Daily food intake ([7]; Day 1) [g/day] | Daily food intake ([7]; Day 2) [g/day] | Daily food intake ([7]; Day 3) [g/day] | Daily food intake ([7]; Day 4) [g/day] | food intake [7] | non-fasting serum glucose levels [8]
1 | B1 | preserved TrkB receptor agonist activity | inactive in vivo | – | – | – | – | – | – | – | – | – | – | – | – | – | – | –
2 | B2 | increased receptor tyrosine phosphorylation | – | did not increase receptor tyrosine phosphorylation | did not increase receptor tyrosine phosphorylation | several orders of magnitude higher | 12.7 to 16 | 100.0 % of baseline | 97.3 % of baseline | 98.4 % of baseline | 100.1 % of baseline | reduced the body weight growth | 6.7 | 5.3 | 5.8 | 6.2 | reduced | showed a tendency to reduce
3 | B3 | increased receptor tyrosine phosphorylation | – | did not increase receptor tyrosine phosphorylation | did not increase receptor tyrosine phosphorylation | – | – | 100.0 % of baseline | 98.2 % of baseline | 100.0 % of baseline | 103.0 % of baseline | reduced the body weight growth | 6.8 | 5.3 | 6.7 | 6.3 | reduced | showed a tendency to reduce
